The values that follow come from the supplement of paper PMC10567573.

First the molecules themselves.
B1: ZNF207 (parent)
chain: FPSAGQAQAAVQGPVGTDFKPLNS
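Note: lentivirally expressed fusions sorted by FACS into six bins by GFP to DsRed ratio, PSI derived from sequencing read proportions per bin multiplied by bin number.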

The variants in the series derive from B1. Nature of the series: protein stability index of a GFP-peptide fusion (GPS, HEK-293T) (PSI 1-6); higher = more stable. The conditions noted are these: c terminus: a fixed tail appended.
For FPSAGQAQAASQGPVGTDFKPLNS, the protein stability index stood at 4.27. As for FPSAGQAQAAEQGPVGTDFKPLNS, the figure is 3.84; as for FPSAGQAQAAQQGPVGTDFKPLNS, 3.72; as for FPSAGQAQAANQGPVGTDFKPLNS, 3.32. For the variant FPSAGQAQAALQGPVGTDFKPLNS, the protein stability index was found to be 3.07. Under FPSAGQAQAATQGPVGTDFKPLNS stands 3.58. Under FPSAGQAQAAAQGPVGTDFKPLNS stands 3.73; under FPSAGQAQAACQGPVGTDFKPLNS, 3.1; under FPSAGQAQAAFQGPVGTDFKPLNS, 2.58. As for FPSAGQAQAAGQGPVGTDFKPLNS, the figure is 3.72; as for FPSAGQAQAAMQGPVGTDFKPLNS, 3.36; as for FPSAGQAQAARQGPVGTDFKPLNS, 4.12. Consider FPSAGQAQAAPQGPVGTDFKPLNS, for which the protein stability index is 3.62. In the case of FPSAGQAQAAWQGPVGTDFKPLNS, the protein stability index was found to be 2.38.

Turning to FPSAGQAQAADQGPVGTDFKPLNS, the protein stability index was 3.68. Under FPSAGQAQAAIQGPVGTDFKPLNS stands 3.25; under FPSAGQAQAAYQGPVGTDFKPLNS, 3. Under FPSAGQAQAAKQGPVGTDFKPLNS stands 3.45. Under FPSAGQAQNAVQGPVGTDFKPLNS stands 3.83; under FPSAGQAQCAVQGPVGTDFKPLNS, 3.37.

In the case of FPSAGQAQTAVQGPVGTDFKPLNS, the protein stability index turned out to be 2.99. As for FPSAGQAQVAVQGPVGTDFKPLNS, the figure is 2.93. As for FPSAGQAQQAVQGPVGTDFKPLNS, the figure is 4.06; as for FPSAGQAQKAVQGPVGTDFKPLNS, 3.52; as for FPSAGQAQEAVQGPVGTDFKPLNS, 3.74. Under FPSAGQAQSAVQGPVGTDFKPLNS stands 3.1; under FPSAGQAQYAVQGPVGTDFKPLNS, 2.13. As to FPSAGQAQDAVQGPVGTDFKPLNS, the protein stability index came out at 4.02. Under FPSAGQAQPAVQGPVGTDFKPLNS stands 3.53; under FPSAGQAQMAVQGPVGTDFKPLNS, 3.06; under FPSAGQAQIAVQGPVGTDFKPLNS, 2.86. As for FPSAGQAQLAVQGPVGTDFKPLNS, the figure is 2.62; as for FPSAGQAQFAVQGPVGTDFKPLNS, 2.02; as for FPSAGQAQWAVQGPVGTDFKPLNS, 2.45. As for FPSAGQAQHAVQGPVGTDFKPLNS, the figure is 3.31; as for FPSAGQAQRAVQGPVGTDFKPLNS, 3.47; as for FPSAGQAQGAVQGPVGTDFKPLNS, 3.13.

Turning to FPSAKQAQAAVQGPVGTDFKPLNS, the protein stability index came to 4.23. Under FPSAYQAQAAVQGPVGTDFKPLNS stands 1.82; under FPSAPQAQAAVQGPVGTDFKPLNS, 4.07.

As for FPSAWQAQAAVQGPVGTDFKPLNS, the protein stability index was determined as 1.66. As for FPSAFQAQAAVQGPVGTDFKPLNS, the figure is 1.51; as for FPSAHQAQAAVQGPVGTDFKPLNS, 3.79; as for FPSAEQAQAAVQGPVGTDFKPLNS, 4.17. Under FPSARQAQAAVQGPVGTDFKPLNS stands 3.78; under FPSAQQAQAAVQGPVGTDFKPLNS, 4.19; under FPSATQAQAAVQGPVGTDFKPLNS, 4.11. As for FPSANQAQAAVQGPVGTDFKPLNS, the figure is 4.08; as for FPSALQAQAAVQGPVGTDFKPLNS, 3.19; as for FPSAIQAQAAVQGPVGTDFKPLNS, 4.11. Consider FPSAVQAQAAVQGPVGTDFKPLNS, for which the protein stability index was 3.96.

As to FPSADQAQAAVQGPVGTDFKPLNS, the protein stability index was determined as 4.67. For the variant FPSAMQAQAAVQGPVGTDFKPLNS, the protein stability index is 3.01. FPSASQAQAAVQGPVGTDFKPLNS: the protein stability index stood at 3.3. As for FPSAAQAQAAVQGPVGTDFKPLNS, the protein stability index came to 2.44. FPSACQAQAAVQGPVGTDFKPLNS: the protein stability index came out at 2.75. As for FPGAGQAQAAVQGPVGTDFKPLNS, the figure is 3.75; as for FPFAGQAQAAVQGPVGTDFKPLNS, 3.03; as for FPTAGQAQAAVQGPVGTDFKPLNS, 4. As for FPLAGQAQAAVQGPVGTDFKPLNS, the figure is 4.05. As for FPDAGQAQAAVQGPVGTDFKPLNS, the figure is 4.27; as for FPRAGQAQAAVQGPVGTDFKPLNS, 2.83.

For FPNAGQAQAAVQGPVGTDFKPLNS, the protein stability index came out at 3.08. Under FPEAGQAQAAVQGPVGTDFKPLNS stands 3.93.

Take FPQAGQAQAAVQGPVGTDFKPLNS: the protein stability index is 3.81. Under FPVAGQAQAAVQGPVGTDFKPLNS stands 3.61; under FPMAGQAQAAVQGPVGTDFKPLNS, 3.43; under FPKAGQAQAAVQGPVGTDFKPLNS, 3.17. As to FPCAGQAQAAVQGPVGTDFKPLNS, the protein stability index was found to be 2.61. Turning to FPHAGQAQAAVQGPVGTDFKPLNS, the protein stability index was 3.35. Under FPYAGQAQAAVQGPVGTDFKPLNS stands 2.34; under FPWAGQAQAAVQGPVGTDFKPLNS, 3.44. As for FPIAGQAQAAVQGPVGTDFKPLNS, the figure is 4.35; as for FPAAGQAQAAVQGPVGTDFKPLNS, 3.17. As for FPPAGQAQAAVQGPVGTDFKPLNS, the figure is 3.63; as for FPSAGQAQAWVQGPVGTDFKPLNS, 2.24; as for FPSAGQAQATVQGPVGTDFKPLNS, 3.41. Regarding FPSAGQAQACVQGPVGTDFKPLNS, the protein stability index is 2.75. Under FPSAGQAQAFVQGPVGTDFKPLNS stands 2.22; under FPSAGQAQAIVQGPVGTDFKPLNS, 3.22. Under FPSAGQAQAMVQGPVGTDFKPLNS stands 3.18; under FPSAGQAQARVQGPVGTDFKPLNS, 3.05; under FPSAGQAQAQVQGPVGTDFKPLNS, 3.42. Take FPSAGQAQADVQGPVGTDFKPLNS: the protein stability index worked out at 3.69. As for FPSAGQAQAVVQGPVGTDFKPLNS, the figure is 2.99. Under FPSAGQAQALVQGPVGTDFKPLNS stands 3.18; under FPSAGQAQAGVQGPVGTDFKPLNS, 3.72; under FPSAGQAQAYVQGPVGTDFKPLNS, 2.95. For FPSAGQAQAEVQGPVGTDFKPLNS, the protein stability index was determined as 3.8. Regarding FPSAGQAQANVQGPVGTDFKPLNS, the protein stability index amounted to 3.13.

Take FPSAGQAQASVQGPVGTDFKPLNS: the protein stability index was 3.73. As for FPSAGQAQAHVQGPVGTDFKPLNS, the figure is 3.55; as for FPSAGQAQAKVQGPVGTDFKPLNS, 2.87. As for FPSAGQAQAPVQGPVGTDFKPLNS, the figure is 3.25.
